Assay results as given in patent US20130059781A1 (Novo Nordisk, published 2013).
Numbered stars: 1 amine (or outer) side, 2 acyl side, 3 side chain; on linkers, the order of the positions; unused ones are H or OH. Side chains are listed from the residue outwards. Ends that are not written are not given here. * marks the point of attachment. C18 diacid = O=C(O)CCCCCCCCCCCCCCCCC(=O)*; γGlu = O=C(O)[C@H](CCC(=O)[*:2])N[*:1]; AEEA = NCCOCCOCC(=O)O

B1: N-α-#-[Leu15] Gastrin-17 (14-17) (peptide)
peptide: {C18 diacid-γGlu-AEEA-AEEA}-WLDF-NH2
SMILES: CC(C)C[C@H](NC(=O)[C@H](Cc1c[nH]c2ccccc12)NC(=O)COCCOCCNC(=O)COCCOCCNC(=O)CC[C@H](NC(=O)CCCCCCCCCCCCCCCCC(=O)O)C(=O)O)C(=O)N[C@@H](CC(=O)O)C(=O)N[C@@H](Cc1ccccc1)C(N)=O
B2: N-α-#-[Leu15] Gastrin-17 (15-17) (peptide)
peptide: {C18 diacid-γGlu-AEEA-AEEA}-Leu-Asp-Phe-NH2
SMILES: CC(C)C[C@H](NC(=O)COCCOCCNC(=O)COCCOCCNC(=O)CC[C@H](NC(=O)CCCCCCCCCCCCCCCCC(=O)O)C(=O)O)C(=O)N[C@@H](CC(=O)O)C(=O)N[C@@H](Cc1ccccc1)C(N)=O
B3: N-α-#-[Leu15] Gastrin-17 (13-17) (peptide)
peptide: {C18 diacid-γGlu-AEEA-AEEA}-GWLDF-NH2
SMILES: CC(C)C[C@H](NC(=O)[C@H](Cc1c[nH]c2ccccc12)NC(=O)CNC(=O)COCCOCCNC(=O)COCCOCCNC(=O)CC[C@H](NC(=O)CCCCCCCCCCCCCCCCC(=O)O)C(=O)O)C(=O)N[C@@H](CC(=O)O)C(=O)N[C@@H](Cc1ccccc1)C(N)=O
B4: N-α-#-Gastrin-17 (16-17) (peptide)
peptide: {C18 diacid-γGlu-AEEA-AEEA}-Asp-Phe-NH2
SMILES: NC(=O)[C@H](Cc1ccccc1)NC(=O)[C@H](CC(=O)O)NC(=O)COCCOCCNC(=O)COCCOCCNC(=O)CC[C@H](NC(=O)CCCCCCCCCCCCCCCCC(=O)O)C(=O)O

The binders below were run against CCK2 receptor (gastrin receptor) (assay: cell-based or functional assay).

Going from QGK([AEEA-AEEA-γGlu-C18 diacid])WLEEEEEAYGWLDF-NH2 (ends and bridges not checked) [[Lys3(N-ε-#),Leu15] Gastrin-17] to QGPWLEEEEEAYGK([AEEA-AEEA-γGlu-C18 diacid])LDF-NH2 (ends and bridges not checked) [[Lys14(N-ε-#),Leu15] Gastrin-17], the “Relative Receptor Potency” value falls from 60 to 0.

QGPWLEEEEEAYGWK([AEEA-AEEA-γGlu-C18 diacid])DF-NH2 (ends and bridges not checked) [[Lys15(N-ε-#)] Gastrin-17] and QGPWLEEEEEAYGWLK([AEEA-AEEA-γGlu-C18 diacid])F-NH2 (ends and bridges not checked) [[Lys16(N-ε-#),Leu15] Gastrin-17] are the same in “Relative Receptor Potency” value: 0 for the first, 0 for the second.

Compared with QGPK([AEEA-AEEA-γGlu-C18 diacid])LEEEEEAYGWLDF-NH2 (ends and bridges not checked) [[Lys4(N-ε-#),Leu15] Gastrin-17], {C18 diacid-γGlu-AEEA-AEEA}-QGPWLEEEEEAYGWLDF-NH2 (ends and bridges not checked) [N-α-#-[Leu15] Gastrin-17] is higher in “Relative Receptor Potency” value: 30 for the first, 57 for the second.

Compared with QGPWLEEEEEAYGWLDF-NH2 (ends and bridges not checked) [[Leu15] Gastrin-17], QGPWLK([AEEA-AEEA-γGlu-C18 diacid])EEEEAYGWLDF-NH2 (ends and bridges not checked) [[Lys6(N-ε-#),Leu15] Gastrin-17] is lower in “Relative Receptor Potency” value: 100 for the first, 40 for the second.

First: QGPWLEEEEEAYGWLDK([AEEA-AEEA-γGlu-C18 diacid])-NH2 (ends and bridges not checked) [[Lys17(N-ε-#), Leu 15] Gastrin-17]
Second: QGPWLEEEEEAYK([AEEA-AEEA-γGlu-C18 diacid])WLDF-NH2 (ends and bridges not checked) [[Lys13(N-ε-#),Leu15] Gastrin-17]
The “Relative Receptor Potency” value of the first is lower: 0 for the first, 5 for the second.

For QGPWLEEEEEAK([AEEA-AEEA-γGlu-C18 diacid])GWLDF-NH2 (ends and bridges not checked) [[Lys12(N-ε-#),Leu15] Gastrin-17], the “Relative Receptor Potency” value was 6.

Target: CCK2 receptor (gastrin receptor)
Assay: cell-based or functional assay
Remark: another data set of the same source

Going from B1 to {C18 diacid-γGlu-AEEA-AEEA}-EEEEAYGWLDF-NH2 (ends and bridges not checked) [N-α-#-[Leu15] Gastrin-17 (7-17)], the “Relative Receptor Potency” value rises from 0 to 39.

Going from B2 to {C18 diacid-γGlu-AEEA-AEEA}-EEAYGWLDF-NH2 (ends and bridges not checked) [N-α-#-[Leu15] Gastrin-17 (9-17)], the “Relative Receptor Potency” value rises from 0 to 30.

First: B3
Second: {C18 diacid-γGlu-AEEA-AEEA}-QGPWLEEEEEAYGWLDF-NH2 (ends and bridges not checked) [N-α-#-[Leu15] Gastrin-17]
The “Relative Receptor Potency” value of the first is lower: 6 for the first, 76 for the second.

Going from {C18 diacid-γGlu-AEEA-AEEA}-YGWLDF-NH2 (ends and bridges not checked) [N-α-#-[Leu15] Gastrin-17 (12-17)] to {C18 diacid-γGlu-AEEA-AEEA}-WLEEEEEAYGWLDF-NH2 (ends and bridges not checked) [N-α-#-[Leu15] Gastrin-17 (4-17)], the “Relative Receptor Potency” value rises from 7 to 58.

First: QGPWLEEEEEAYGWLDF-NH2 (ends and bridges not checked) [[Leu15] Gastrin-17]
Second: B4
The “Relative Receptor Potency” value of the first is higher: 100 for the first, 0 for the second.
